Residue numbers refer to the chain shown, from its start.
T1: human SALM5 LRR-Ig L327N (human, UniProt Q96NI6 18-374, L327N, introduced N-linked glycan wedge GlcNAc2Man5 (confirmed by mass spectrometry))
T1 construct: SALM5, human, LRR and Ig domains, residues 18-374, with L327N; source: BacMam baculovirus-transduced HEK293 GnTI- cells, secreted, purified (Ni-NTA, gel filtration); not shown: His7, C-terminal, kept
T1 sequence (looked up): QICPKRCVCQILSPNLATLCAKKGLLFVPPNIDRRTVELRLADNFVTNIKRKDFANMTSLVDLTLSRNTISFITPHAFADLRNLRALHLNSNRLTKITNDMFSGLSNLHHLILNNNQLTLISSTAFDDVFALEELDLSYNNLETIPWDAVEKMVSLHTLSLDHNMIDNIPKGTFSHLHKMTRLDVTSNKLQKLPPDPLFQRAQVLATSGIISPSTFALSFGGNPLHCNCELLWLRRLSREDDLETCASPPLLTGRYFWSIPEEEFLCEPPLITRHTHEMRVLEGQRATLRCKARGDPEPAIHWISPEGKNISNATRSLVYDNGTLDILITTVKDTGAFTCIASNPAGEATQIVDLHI

T2: human SALM5 LRR-Ig R110N/E160S (human, UniProt Q96NI6 18-374, R110N | E160S, N-linked glycans added at residues R110 and N158 (glycan wedge, shown by mass spectrometry))
T2 construct: SALM5, human, LRR and Ig domains, residues 18-374, with R110N and E160S; also called monomeric SALM5 R110N/E160S mutant; source: BacMam baculovirus-transduced HEK293 GnTI- cells, secreted, purified (Ni-NTA, gel filtration)
T2 sequence (looked up): T1 sequence (looked up) with R93N, E143S, N310L

B1: human SALM5 LRR-Ig (wild type) (domain or fragment, UniProt Q96NI6 18-374, looked up)
chain: T1 sequence (looked up) with N310L
modifications: N-linked glycans at N73, N330 and N339
notes: SALM5, human, LRR and Ig domains, residues 18-374; Glycans trimmed with Endo H only for crystallization; also called SALM5 LRR-Ig WT; WT; source: BacMam baculovirus-transduced HEK293 GnTI- cells, secreted, purified (Ni-NTA, gel filtration); not shown: His7, C-terminal, kept
B2: Fc-tagged human PTPδ Ig1–3 (MeA^−) (Fc fusion, UniProt P23468 21-320, looked up)
chain: ETPPRFTRTPVDQTGVSGGVASFICQATGDPRPKIVWNKKGKKVSNQRFEVIEFDDGSGSVLRIQPLRTPRDEAIYECVASNNVGEISVSTRLTVLREDQIPRGFPTIDMGPQLKVVERTRTATMLCAASGNPDPEITWFKDFLPVDTSNNNGRIKQLRSGALQIEQSEESDQGKYECVATNSAGTRYSAPANLYVRELREVRRVPPRFSIPPTNHEIMPGGSVNITCVAVGSPMPYVKWMLGAEDLTPEDDMPIGRNVLELNDVRQSANYTCVAMSTLGVIEAIAQITVK
notes: BacMam vector with C-terminal human IgG1 Fc plus 7x His-tag; also called PTPδ-Fc; PTPδ Ig1–3 (MeA^−)-Fc; source: BacMam baculovirus-transduced HEK293 GnTI- cells, secreted, purified (Ni-NTA, gel filtration); not shown: Fc (human IgG1), C-terminal, kept
B3: human PTPδ Ig1–3 (MeA^−/MeB^−) (domain or fragment, UniProt P23468 21-320, looked up)
chain: ETPPRFTRTPVDQTGVSGGVASFICQATGDPRPKIVWNKKGKKVSNQRFEVIEFDDGSGSVLRIQPLRTPRDEAIYECVASNNVGEISVSTRLTVLREDQIPRGFPTIDMGPQLKVVERTRTATMLCAASGNPDPEITWFKDFLPVDTSNNNGRIKQLRSGALQIEQSEESDQGKYECVATNSAGTRYSAPANLYVRVRRVPPRFSIPPTNHEIMPGGSVNITCVAVGSPMPYVKWMLGAEDLTPEDDMPIGRNVLELNDVRQSANYTCVAMSTLGVIEAIAQITVK
notes: PTPδ, human, Ig domains 1-3, residues 21-320 with both residues 181-189 (MeA) and 227-230 (MeB) deleted; Splice code variant lacking mini exons A and B; source: BacMam baculovirus-transduced HEK293 GnTI- cells, secreted, purified (Ni-NTA, gel filtration); not shown: His7, C-terminal, kept
B4: human PTPδ Ig1–3 (MeA^−) (domain or fragment, UniProt P23468 21-320, looked up)
chain: B2 chain
notes: Glycans trimmed with Endo H only for crystallization; also called MeA^−/MeB^+; source: BacMam baculovirus-transduced HEK293 GnTI- cells, secreted, purified (Ni-NTA, gel filtration); not shown: His7, C-terminal, kept
B5: human PTPδ Ig1–3 (MeB^−) (domain or fragment, UniProt P23468 21-320, looked up)
chain: ETPPRFTRTPVDQTGVSGGVASFICQATGDPRPKIVWNKKGKKVSNQRFEVIEFDDGSGSVLRIQPLRTPRDEAIYECVASNNVGEISVSTRLTVLREDQIPRGFPTIDMGPQLKVVERTRTATMLCAASGNPDPEITWFKDFLPVDTSNNNGRIKQLRSESIGGTPIRGALQIEQSEESDQGKYECVATNSAGTRYSAPANLYVRVRRVPPRFSIPPTNHEIMPGGSVNITCVAVGSPMPYVKWMLGAEDLTPEDDMPIGRNVLELNDVRQSANYTCVAMSTLGVIEAIAQITVK
notes: PTPδ, human, Ig domains 1-3, residues 21-320 with the MeB splice insert ELRE 227-230 deleted; Splice code variant lacking mini exon B; also called MeA^+/MeB^−; source: BacMam baculovirus-transduced HEK293 GnTI- cells, secreted, purified (Ni-NTA, gel filtration); not shown: His7, C-terminal, kept
B6: human PTPδ Ig1–3 WT (domain or fragment, UniProt P23468 21-320, looked up)
chain: ETPPRFTRTPVDQTGVSGGVASFICQATGDPRPKIVWNKKGKKVSNQRFEVIEFDDGSGSVLRIQPLRTPRDEAIYECVASNNVGEISVSTRLTVLREDQIPRGFPTIDMGPQLKVVERTRTATMLCAASGNPDPEITWFKDFLPVDTSNNNGRIKQLRSESIGGTPIRGALQIEQSEESDQGKYECVATNSAGTRYSAPANLYVRELREVRRVPPRFSIPPTNHEIMPGGSVNITCVAVGSPMPYVKWMLGAEDLTPEDDMPIGRNVLELNDVRQSANYTCVAMSTLGVIEAIAQITVK
notes: PTPδ, human, Ig domains 1-3 with MeA and MeB remained; residues 21-320 as stated for its variants; also called MeA^+/MeB^+; source: BacMam baculovirus-transduced HEK293 GnTI- cells, secreted, purified (Ni-NTA, gel filtration); not shown: His7, C-terminal, kept

Experiments:
[1] = target: the molecule itself; assay: crystal structure; SALM5 LRR-Ig in complex with PTPδ Ig1–3 (MeA^−), Endo H trimmed; 3.73 Å; 0.76 M potassium sodium tartrate, 0.1 M MES pH 6.0; molecular replacement
[2] = target: B1; assay: SPR; Biacore T200, 25 °C; Fc-tagged PTPδ Ig1–3 (MeA^−) amine-coupled to CM5 (about 500 RU); SALM5 LRR-Ig analytes 23.43-1500 nM; 10 mM HEPES pH 7.4, 150 mM NaCl, 3 mM EDTA, 0.05% P20; 1:1 Langmuir model; conditions: both partners purified
human SALM5 LRR-Ig L327N = target: T1, human SALM5 LRR-Ig L327N; assay: as above; conditions: both partners purified
[3] = target: B1; assay: SPR; Biacore T200, 25 °C; His-tagged SALM5 LRR-Ig immobilised on CM5; His-tagged PTPδ Ig1–3 variants as analytes 2.74-6000 nM; 10 mM HEPES pH 7.4, 150 mM NaCl, 3 mM EDTA, 0.05% P20; 1:1 Langmuir model; conditions: both partners purified
[4] = target: T2, human SALM5 LRR-Ig R110N/E160S; assay: SEC; purified SALM5 and PTPδ mixed, 1 h at 4 °C, Superdex 200 Increase in HBS (10 mM HEPES pH 7.5, 500 mM NaCl); conditions: both partners purified

| Binder | Kd [3] | further results |
| --- | --- | --- |
| B1 | – | stoichiometry N [1]: 2 |
| B2 | – | Kd [2]: 282 nM; Kd (human SALM5 LRR-Ig L327N): 145 nM |
| B3 | 1870 nM | – |
| B4 | 99.9 nM | binding result [4]: binds |
| B5 | 1780 nM | – |
| B6 | 66 nM | – |
